Key:
[1] = target: Epstein-Barr virus glycoprotein 42 (gp42) (Epstein-Barr virus) (UniProt P03205); experiment: cell-based or functional assay
[2] = target: EBV gH/gL/gp42 heterotrimer (recombinant protein) (Epstein-Barr virus) (UniProt P03231); experiment: BLI cross-competition; gH/gL/gp42 on the biosensor pre-saturated with primary mAb A10, then binding of this secondary mAb measured; high value = secondary blocked
[3] = target: EBV gH/gL/gp42 heterotrimer (recombinant protein) (Epstein-Barr virus) (UniProt P03231); experiment: BLI cross-competition; gH/gL/gp42 on the biosensor pre-saturated with primary mAb 4C12, then binding of this secondary mAb measured; high value = secondary blocked
[4] = target: EBV gH/gL/gp42 heterotrimer (recombinant protein) (Epstein-Barr virus) (UniProt P03231); experiment: BLI cross-competition; gH/gL/gp42 on the biosensor pre-saturated with primary mAb F2-1, then binding of this secondary mAb measured (self pair); high value = secondary blocked
[5] = target: T1, Epstein-Barr virus glycoprotein 42 (gp42) (Epstein-Barr virus, UniProt P03205 34-223, limits assumed); experiment: cell-based or functional assay
T1 sequence: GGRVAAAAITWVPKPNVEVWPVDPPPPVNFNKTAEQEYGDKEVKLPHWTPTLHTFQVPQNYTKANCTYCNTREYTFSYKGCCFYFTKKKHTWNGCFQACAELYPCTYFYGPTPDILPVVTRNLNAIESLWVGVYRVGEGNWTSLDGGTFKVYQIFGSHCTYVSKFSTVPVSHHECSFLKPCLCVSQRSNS

[6] = target: T1, Epstein-Barr virus glycoprotein 42 …; experiment: cell-based or functional assay; remark: listed apart in the source
[7] = target: T1, Epstein-Barr virus glycoprotein 42 …; experiment: cell-based or functional assay; remark: listed apart in the source
[8] = target: T2, EBV gH/gL/gp42 heterotrimer (recombinant protein) (Epstein-Barr virus, UniProt P03231 19-679; P03212 23-137); experiment: BLI (Octet RED96e), biotinylated gH/gL/gp42 on streptavidin biosensors, Fab dilution series, 1:1 global fit
T2 construct: Recombinant complex; also called gH/gL/gh42

[9] = target: T2, EBV gH/gL/gp42 heterotrimer …; experiment: BLI, gH/gL/gp42 on the biosensor, dilution series of Fab (legend box shows 5.00E-07), 300 s association, dissociation to 1200 s

Work on “F2-1 monoclonal antibody (previously described murine anti-gp42 antibody)” yielded an IC50 titer to block glycoprotein-mediated B cell fusion [1] of 111 µg/mL, an IC50 titer to neutralize EBV infection in B cells [1] of 0.584 µg/mL and a cross-competition (name or unit not given) [2] of 100. The cross-competition (name or unit not given) [3] was 8.9 and the cross-competition (name or unit not given) [4] was 95.4.

B1: A10 monoclonal antibody (cynomolgus monkey variable regions on human IgG1 constant region) (antibody, V domains shown)
VH: QVQLQESGPGLVKPSQTLSLTCAISGDSVSSNSATWNWIRQSPSRGLEWLGRTYYRSKWYYDYAQSVQNRISINPDTSKNQFSLQLNSVTPEDMAVYYCARGDFDAFDFWGQGLRVTVSS
VL: SYELTQPPSVSAASGQTARITCGGDNIGSKNVQWYQQKPAQAPVLVIYADSKRPSGVPERFSGSNSGNTATLTISGVEAGDEADYYCQVWDRSSNIFGVGTRLTVLG
B1 was tested, and the “effectiveness in blocking B cell fusion relative to F2-1” value [5] was ~50 fold, the “neutralization potency relative to F2-1” value [5] was ~14 fold and the “IC50 titer to neutralize EBV infection in B cells” value [6] was 0.0391 µg/mL. For the same molecule, the “IC50 titer to block glycoprotein-mediated B cell fusion” value [7] was 2.41 µg/mL.

B2: A10 Fab (Fab, V domains shown)
VH: QVQLQESGPGLVKPSQTLSLTCAISGDSVSSNSATWNWIRQSPSRGLEWLGRTYYRSKWYYDYAQSVQNRISINPDTSKNQFSLQLNSVTPEDMAVYYCARGDFDAFDFWGQGLRVTVSS
VL: SYELTQPPSVSAASGQTARITCGGDNIGSKNVQWYQQKPAQAPVLVIYADSKRPSGVPERFSGSNSGNTATLTISGVEAGDEADYYCQVWDRSSNIFGVGTRLTVLG
notes: Fab of A10
B2 was tested, and the “IC50 titer to block glycoprotein-mediated B cell fusion” value [7] was 1.73 µg/mL, the Kd [8] was 0.149 nM and the koff [8] was 0.000227 s⁻¹. The kon [8] was 1.54e+06 M⁻¹ s⁻¹.

B3: 4C12 Fab (Fab, V domains shown)
VH: EVQLQQSGPELVKPGASVKISCKASGYTFTDYNMHWVKQSHGKNLEWIGFIYLYNGGTGYNQNFKSKATLTVDNSSSTAYMELRSLTSEDSAVFYCARDYYGNPYAMDYWGQGTSVTVSS
VL: DIQMTQTTSSLSASLGDRVTISCRASQDISNYLNWYQQKPDGTVKLLIYYTSRLRSGVPSRFSGSGSGTDYSLTINNLEQEDIATYFCQQGNTLPFTFGSGTKLEIK
notes: Fab of mAb 4C12; how the Fab was made is not described
With B3 the Kd [9] was 57.9 nM.

Reference: patent US20230348568A1 (US Dept. of Health and Human Services, published 2023)
